# Assay results as given in patent US20140099324A1 (University of Texas, published 2014).
# Key:
# [1] = molecular target: HERV-K recombinant fusion protein K10Q18 (K-SU in pQE30, N-terminal 6-His) (human endogenous retrovirus K); assay: flow cytometry on dendritic cells pulsed with the protein
# [2] = molecular target: T1, HERV-K env protein expressed endogenously by human cancer cell lines (human endogenous retrovirus K); assay: cell-based or functional assay
# T1 chain: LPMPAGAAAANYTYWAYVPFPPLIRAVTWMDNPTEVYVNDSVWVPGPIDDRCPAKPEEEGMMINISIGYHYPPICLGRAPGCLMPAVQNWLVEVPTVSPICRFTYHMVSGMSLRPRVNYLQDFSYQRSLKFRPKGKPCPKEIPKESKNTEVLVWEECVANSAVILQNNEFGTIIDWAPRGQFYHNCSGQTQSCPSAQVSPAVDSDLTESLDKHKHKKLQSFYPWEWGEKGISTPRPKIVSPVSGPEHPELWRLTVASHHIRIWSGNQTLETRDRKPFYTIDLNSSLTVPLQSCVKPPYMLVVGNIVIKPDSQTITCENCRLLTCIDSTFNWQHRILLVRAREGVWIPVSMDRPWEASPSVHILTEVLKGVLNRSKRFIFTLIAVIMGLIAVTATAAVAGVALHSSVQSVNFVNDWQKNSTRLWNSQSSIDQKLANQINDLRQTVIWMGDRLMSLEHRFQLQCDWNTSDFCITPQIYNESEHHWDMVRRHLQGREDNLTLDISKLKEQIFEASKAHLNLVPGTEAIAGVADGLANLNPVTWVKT
molecule,measurement,setting,value
anti-RGS monoclonal antibody (Qiagen),percent of DCs positive,[1],> 70%
"anti-HERV-K env monoclonal antibody 6H5 (antibody, V domains shown) VH: MAQVKLQQSGPDLVKPGASVKISCKASGYSFTGYYMHWVKQSHGKSLEWIGRVNPNSGGTSYNQKFKDKAILTVDKSSSTAYMELRSLTSEDSAVYYCARSKGNYFYAMDY VL: ASLAVSLGQRATISCRASESVDSHGTSFMHWYQQKPGQPPKFLIYRASNLESGIPARFSGSGSRTDFTLTINPVETDDVAIYYCQQSNEDPPTFGGGTKLEIK","IC50, cytotoxicity toward MCF-7 breast cancer cells (72 h, crystal violet)",[2],0.0517 µM
same,"IC50, cytotoxicity toward MDA-MB-231 breast cancer cells (72 h, crystal violet)",[2],0.0066 µM
